Data on six molecules can be found in publication PMC9579014 (2022).

To fix the notation:
T1: legumain AEP catalytic domain (Homo sapiens, UniProt Q99538)
T1 chain: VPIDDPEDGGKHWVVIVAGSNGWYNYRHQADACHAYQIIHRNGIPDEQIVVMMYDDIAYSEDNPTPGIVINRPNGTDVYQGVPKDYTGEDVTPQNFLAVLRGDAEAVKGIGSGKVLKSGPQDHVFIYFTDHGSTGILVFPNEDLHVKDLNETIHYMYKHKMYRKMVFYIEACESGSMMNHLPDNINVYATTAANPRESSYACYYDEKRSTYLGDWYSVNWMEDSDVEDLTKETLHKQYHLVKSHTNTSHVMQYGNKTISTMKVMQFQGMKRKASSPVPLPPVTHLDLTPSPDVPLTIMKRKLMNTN

B1: clitocypin 2 (protein)
chain: MASLEDGIYRLRAVTTHNPDPGVGGEYATVEGARRPVKAEPNTPPFFAAQAWQVTRNADGQYTIKYQGLNTPFEYGFSYDELEPNAPVIAGDPKEYILQLVPSTADVYIIRAPIQRIGVDVEVGVQGNTLVYKFFPVDGSGGDRPAWRFTRE
B2: clitocypin 2 (protein)
chain: B1 chain with A48E, A49Q, A51I
B3: macrocypin 1a (protein)
chain: GFEDGFYTILHLAEGQHPNSKIPGGMYASSKDGKDVPVTAEPLGPQSKIRWWIARDPQAGDDMYTITEFEIDNSIPGQWSRSPVETEVPVYLYDRIKAEETGYTCAWRIQPADHGADGVYHIVGNVRIGSTDWADLREEYGEPQVYMKPVPVIPNVYIPRWFILGYEE
B4: macrocypin 1a (protein)
chain: B3 chain with E70R, R95A
B5: macrocypin 1a (protein)
chain: B3 chain with E70R

Changes are numbered by the printed parent chain.

The first test deals with legumain (Homo sapiens) (UniProt Q99538).
Test: not given
The note with it: cited from earlier work.
Take Clitocypin (from UniProt Q9P4A2): the Ki is 21.5 nM.

Another test has as its target T1, legumain AEP catalytic domain. Kind of test: enzyme inhibition assay (AAN-AMC).
Conditions: not given
B1 yielded a Ki of 6690 nM.

Consider B2, for which the Ki came to 79 nM.

B3 returned a Ki of 147 nM. B4: the affinity corresponds to a Ki of 183 nM. B5 registered a Ki of 2.18 nM.

A word on the Ki: it is a measure of affinity in units of concentration, obtained from inhibition or displacement.
